Data from patent US20230340055A1 (published 2023).

What was measured:
[1] = target: T1, IL-2-Rα/β/γ on the murine CTLL-2 T lymphocyte cell line (murine, UniProt P01590 22-268; P16297 27-539; P34902 23-369); assay: cell-based or functional assay
T1 sequence (looked up) 1: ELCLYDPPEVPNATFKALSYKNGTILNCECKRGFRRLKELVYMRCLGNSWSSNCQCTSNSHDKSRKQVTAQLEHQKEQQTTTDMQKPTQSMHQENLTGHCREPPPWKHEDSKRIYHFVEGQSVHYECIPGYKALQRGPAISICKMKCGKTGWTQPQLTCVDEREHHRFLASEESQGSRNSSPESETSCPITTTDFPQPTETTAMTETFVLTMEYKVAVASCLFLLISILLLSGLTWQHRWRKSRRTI
T1 sequence (looked up) 2: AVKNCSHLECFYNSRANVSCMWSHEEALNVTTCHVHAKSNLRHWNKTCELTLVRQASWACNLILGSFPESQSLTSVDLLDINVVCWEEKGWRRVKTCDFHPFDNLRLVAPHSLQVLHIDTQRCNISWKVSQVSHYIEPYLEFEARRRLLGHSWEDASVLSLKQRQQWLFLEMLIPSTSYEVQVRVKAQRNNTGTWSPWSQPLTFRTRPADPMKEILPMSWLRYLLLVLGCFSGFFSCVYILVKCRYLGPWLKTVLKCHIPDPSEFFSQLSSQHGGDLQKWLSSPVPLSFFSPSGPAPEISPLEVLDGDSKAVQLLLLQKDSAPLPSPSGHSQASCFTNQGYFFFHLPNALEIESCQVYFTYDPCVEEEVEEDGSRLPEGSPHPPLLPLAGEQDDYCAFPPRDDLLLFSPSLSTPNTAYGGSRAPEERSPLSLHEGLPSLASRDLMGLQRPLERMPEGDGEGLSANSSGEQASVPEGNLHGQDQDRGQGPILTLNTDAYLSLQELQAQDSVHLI
T1 sequence (looked up) 3: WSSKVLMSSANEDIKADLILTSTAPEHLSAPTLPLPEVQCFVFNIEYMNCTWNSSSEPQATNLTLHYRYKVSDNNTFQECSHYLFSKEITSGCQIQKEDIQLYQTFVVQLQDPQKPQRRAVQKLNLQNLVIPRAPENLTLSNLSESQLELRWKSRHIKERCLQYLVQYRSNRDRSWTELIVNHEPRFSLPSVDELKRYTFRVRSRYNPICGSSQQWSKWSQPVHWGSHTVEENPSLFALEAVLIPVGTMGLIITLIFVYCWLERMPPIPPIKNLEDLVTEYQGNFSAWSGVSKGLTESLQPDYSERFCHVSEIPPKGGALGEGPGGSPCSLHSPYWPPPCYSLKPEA

[2] = target: T2, IL-2Rβγ (dimeric intermediate affinity IL-2 receptor), human, on cells (human, UniProt P14784 27-551; P31785 23-369); assay: cell-based or functional assay
T2 sequence (looked up) 1: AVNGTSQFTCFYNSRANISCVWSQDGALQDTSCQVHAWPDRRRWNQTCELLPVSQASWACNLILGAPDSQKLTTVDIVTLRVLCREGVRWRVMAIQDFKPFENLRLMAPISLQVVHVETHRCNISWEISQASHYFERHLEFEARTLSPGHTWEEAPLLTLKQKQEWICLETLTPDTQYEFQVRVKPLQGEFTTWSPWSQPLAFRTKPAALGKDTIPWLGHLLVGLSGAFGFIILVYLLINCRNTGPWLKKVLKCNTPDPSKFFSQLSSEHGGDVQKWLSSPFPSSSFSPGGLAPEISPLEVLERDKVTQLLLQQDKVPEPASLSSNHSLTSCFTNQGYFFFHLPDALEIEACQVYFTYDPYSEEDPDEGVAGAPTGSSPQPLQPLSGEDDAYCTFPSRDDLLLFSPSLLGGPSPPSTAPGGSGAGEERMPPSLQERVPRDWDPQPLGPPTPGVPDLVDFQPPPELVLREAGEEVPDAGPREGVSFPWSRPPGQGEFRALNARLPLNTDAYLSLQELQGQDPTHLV
T2 sequence (looked up) 2: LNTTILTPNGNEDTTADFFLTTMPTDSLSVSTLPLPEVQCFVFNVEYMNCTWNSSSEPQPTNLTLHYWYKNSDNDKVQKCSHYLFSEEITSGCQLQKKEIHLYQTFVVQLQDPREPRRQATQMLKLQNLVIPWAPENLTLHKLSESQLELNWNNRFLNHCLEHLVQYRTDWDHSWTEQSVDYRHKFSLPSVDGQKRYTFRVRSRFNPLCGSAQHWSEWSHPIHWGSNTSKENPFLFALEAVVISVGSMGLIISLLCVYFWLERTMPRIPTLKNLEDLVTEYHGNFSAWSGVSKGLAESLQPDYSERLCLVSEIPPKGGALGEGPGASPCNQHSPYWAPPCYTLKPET

[3] = target: T3, Human IL-2 Receptor alpha, Fc-Tag (Symansis, New Zealand) (human, UniProt P01589 22-240); assay: calculated from the SPR KD values of Example 15; reference protein 5a
T3 construct: extracellular domain; Bought reagent; also called IL-2Rα; IL-2Rα-Fc; not shown: Fc-Tag (captured by anti-human IgG (Fc) antibody)
T3 sequence (looked up): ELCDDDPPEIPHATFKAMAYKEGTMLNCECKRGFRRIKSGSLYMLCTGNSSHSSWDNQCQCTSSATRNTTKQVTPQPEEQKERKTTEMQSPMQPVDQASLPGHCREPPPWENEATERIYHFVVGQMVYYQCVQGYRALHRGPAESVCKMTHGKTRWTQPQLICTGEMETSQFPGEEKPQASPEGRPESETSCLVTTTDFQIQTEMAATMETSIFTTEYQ
Description: (§1) For the determination of binding kinetics to IL-2Rα the following chip preparation was used: Human IL-2 Receptor alpha, Fc-Tag (Symansis, New Zealand) was diluted in HBS-EP running buffer (GE Healthcare, 10 mM HEPES, 150 mM NaCl, 3 mM EDTA, 0.05% Surfactant P20, pH 7.4) to approx. 0.25 µg/mL and immobilized at a flow rate of 50 µL/min for 60 s to achieve 90 - 110 response units (RU).
as §1, with “IL-2Rβ” for “IL-2Rα”, “beta,” for “alpha,”, “around” for “approx.”, “300” for “90”, “330” for “110”
(§2) (50 µL/min flow rate, 60 s contact time, 300 s dissociation time). Double referenced data (subtracted data from the reference flow cell and the buffer only samples) was analysed via a kinetic fit (1:1 binding model) to determine KD, kₐ and kd. Regeneration after each cycle was performed with 3 M MgCl₂.

[4] = target: T3, Human IL-2 Receptor alpha, Fc-Tag …; assay: SPR; KD to IL-2Rα divided by KD to IL-2Rβ of the same compound
Description: as §1
as §1, with “IL-2Rβ” for “IL-2Rα”, “beta,” for “alpha,”, “around” for “approx.”, “300” for “90”, “330” for “110”
as §2

- EC50 CTLL-2, STAT5 phosphorylation [1]: 3.39 µg/mL
- Ratio (E50 CTLL-2 cells/EC50 HH cell) [1]: 35.1
- EC50 HH cells, STAT5 phosphorylation [2]: 0.0966 µg/mL
- ratio of Ratio protein 6 to Ratio protein 5a (KD to IL-2Rα / KD to IL-2Rβ) [3]: > 100
- KD-Ratio (α/β) [4]: > 2.7
B1: protein 6 (ligand)
chain: APTSSSTKKTQLQLEHLLLDLQMILNGINNYKNPKLTFGNSTKFYMPKKATELKHLQCLEEELKPLEEVLNLAQSKNFHLRPRDLISNINVIVLELKGSETTFMCEYADETATIVEFLNRWITFSQSIISTLT
modifications: glycosylated (same sequence with the N-glycosylation motif FGNST as protein 1f); glycan sites not analysed separately for protein 6
